# In patent US20220380421:
# Test system: GST-AcrIIA16_Lmo
substance,measurement,value
Myc-tagged SpyCas9-sgRNA,target DNA cleavage by SpyCas9 co-immunoprecipitated with the Acr,SpyCas9 co-purified with AcrIIA16Lmo is not inhibited
